Measured values reported in patent US7432061B2, “Assays for measuring matrix metalloproteinase activities” (BioZyme, Inc., priority 2002, dated 2008).
Primed or numbered codes have the meaning given here. The star is where a group is joined. Dabcyl″ = Dabcyl quencher at the N-terminus, CN(C)c1ccc(/N=N/c2ccc(C(=O)*)cc2)cc1; Flu = fluorescein label on the cysteine side chain; Dabcyl′ = CN(C)c1ccc(/N=N/c2ccc(C(=O)*)cc2)cc1; fluorescein = fluorescein label

Columns and labels:
Format in all cases: biochemical
collagenase 3 [1] = molecular target: T1, collagenase 3 (Homo sapiens, UniProt P45452); assay: kcat/Km of fluorescence peptide substrates; settings: for Col-3 Specificity Constant: fluorescence substrate, + Gel = PRIONEX GELATIN 1:250
stromelysin 1 [2] = molecular target: T2, stromelysin 1 (Homo sapiens, UniProt P08254); assay: kcat/Km of fluorescence peptide substrates; settings: for reduction of substrate selectivity for stromelysin 1 relative to FlSb1: fluorescence substrates; for Strom1 Selectivity v Col-3: fluorescence substrate, + Gel = PRIONEX GELATIN 1:250
collagenase 1 = molecular target: T3, collagenase 1 (Homo sapiens, UniProt P03956); assay: Cleavage of biglycan and type IV collagen by MMPs (gel); settings: equal concentration of enzyme as col-3
T3 sequence (P03956 100-469): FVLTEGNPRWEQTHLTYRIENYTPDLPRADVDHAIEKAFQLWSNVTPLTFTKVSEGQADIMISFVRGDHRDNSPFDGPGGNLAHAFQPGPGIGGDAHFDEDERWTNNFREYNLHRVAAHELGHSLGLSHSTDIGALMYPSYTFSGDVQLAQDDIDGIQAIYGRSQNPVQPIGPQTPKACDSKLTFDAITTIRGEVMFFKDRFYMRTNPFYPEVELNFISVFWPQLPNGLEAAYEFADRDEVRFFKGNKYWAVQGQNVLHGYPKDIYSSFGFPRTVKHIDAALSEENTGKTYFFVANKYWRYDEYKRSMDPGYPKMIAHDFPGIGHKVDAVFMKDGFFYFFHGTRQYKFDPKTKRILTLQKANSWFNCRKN
Procedure: (§1) Reactions were carried out on a small scale to optimize the enzyme to full length protein ratios. For biglycan, optimum results were obtained with a ratio of 1:100 (20-40 nM col-3 and 4.3 μM biglycan in a 10 μl reaction). For type IV collagen, best results were found with a ratio of 1:50 (28 nM col-3 and 2 μM type IV collagen). For comparison with the other MMPs, an equal concentration of enzyme was used.

gelatinase A = molecular target: T4, gelatinase A (Homo sapiens, UniProt P08253); assay: as above; settings: earlier experiment
T4 sequence (P08253 110-660): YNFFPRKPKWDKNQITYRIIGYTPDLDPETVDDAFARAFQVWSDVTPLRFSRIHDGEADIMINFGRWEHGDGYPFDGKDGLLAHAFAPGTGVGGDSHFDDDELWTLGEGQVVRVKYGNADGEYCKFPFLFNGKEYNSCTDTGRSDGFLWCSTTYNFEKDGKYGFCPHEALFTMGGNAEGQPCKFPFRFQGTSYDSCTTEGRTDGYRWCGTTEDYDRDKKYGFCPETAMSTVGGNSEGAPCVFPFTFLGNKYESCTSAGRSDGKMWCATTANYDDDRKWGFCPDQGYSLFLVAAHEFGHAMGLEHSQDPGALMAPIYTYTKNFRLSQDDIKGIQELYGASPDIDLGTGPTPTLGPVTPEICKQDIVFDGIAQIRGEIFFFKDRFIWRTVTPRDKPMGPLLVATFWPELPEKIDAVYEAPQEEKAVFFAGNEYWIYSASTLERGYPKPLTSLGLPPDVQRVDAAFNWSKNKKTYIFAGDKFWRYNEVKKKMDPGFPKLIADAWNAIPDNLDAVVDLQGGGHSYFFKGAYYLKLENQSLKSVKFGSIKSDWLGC
Procedure: as §1

gelatinase B = gelatinase B (Homo sapiens, UniProt P14780); assay: as above; settings: equal concentration of enzyme as col-3
Procedure: as §1

collagenase 3 [3] = molecular target: T1, collagenase 3; assay: Inhibition with type II collagen, FlSub3 cleavage; settings: Time Period 0.85 to 2.10 Hours; 20 uM FlSub3 with bovine type II collagen
Procedure: In a 96 well plate, collagenase 3 (0.013 nM), collagenase 1 (1.25 nM), stromelysin 1 (0.8 nM), gelatinase A (0.025 nM), or gelatinase B (0.008 nM) were reacted with 20 uM FlSub3 in standard assay buffer in the presence of varying concentrations of bovine type II collagen (0.18-44 ug/ml). The type II collagen, a 1 mg/ml stock in 0.5M acetic acid, was transferred into assay buffer by passing the material through a biospin P6 column from Amersham. The reaction was initiated by addition of substrate to enzyme containing either buffer or an appropriate amount of type II collagen. Data points were taken every 15 min over a period of 15 hours using an excitation and emission wavelength of 350 and 485 nm respectively. The usable data (1-6 hours), was taken and the percent inhibition by type II collagen was calculated for each enzyme and plotted as a function of inhibitor concentration and time in the assay. It should be noted that the percent inhibition varies with time as the bovine substrate is consumed during the reaction course.

stromelysin 1 [4] = molecular target: T2, stromelysin 1; assay: Cleavage of biglycan and type IV collagen by MMPs (gel); settings: equal concentration of enzyme as col-3
Procedure: as §1

T2 sequence (P08254 100-477): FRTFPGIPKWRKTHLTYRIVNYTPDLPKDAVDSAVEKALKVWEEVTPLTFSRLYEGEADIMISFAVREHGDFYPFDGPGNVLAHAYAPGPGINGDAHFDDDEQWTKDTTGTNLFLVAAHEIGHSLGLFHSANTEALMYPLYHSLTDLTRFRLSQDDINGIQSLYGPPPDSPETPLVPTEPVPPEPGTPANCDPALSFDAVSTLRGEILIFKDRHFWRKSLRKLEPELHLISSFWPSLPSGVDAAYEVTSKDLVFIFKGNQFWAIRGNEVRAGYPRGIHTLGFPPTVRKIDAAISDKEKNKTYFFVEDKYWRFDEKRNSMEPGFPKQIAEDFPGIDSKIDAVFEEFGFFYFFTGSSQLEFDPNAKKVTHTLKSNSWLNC
Sequence of gelatinase B (P14780 94-707): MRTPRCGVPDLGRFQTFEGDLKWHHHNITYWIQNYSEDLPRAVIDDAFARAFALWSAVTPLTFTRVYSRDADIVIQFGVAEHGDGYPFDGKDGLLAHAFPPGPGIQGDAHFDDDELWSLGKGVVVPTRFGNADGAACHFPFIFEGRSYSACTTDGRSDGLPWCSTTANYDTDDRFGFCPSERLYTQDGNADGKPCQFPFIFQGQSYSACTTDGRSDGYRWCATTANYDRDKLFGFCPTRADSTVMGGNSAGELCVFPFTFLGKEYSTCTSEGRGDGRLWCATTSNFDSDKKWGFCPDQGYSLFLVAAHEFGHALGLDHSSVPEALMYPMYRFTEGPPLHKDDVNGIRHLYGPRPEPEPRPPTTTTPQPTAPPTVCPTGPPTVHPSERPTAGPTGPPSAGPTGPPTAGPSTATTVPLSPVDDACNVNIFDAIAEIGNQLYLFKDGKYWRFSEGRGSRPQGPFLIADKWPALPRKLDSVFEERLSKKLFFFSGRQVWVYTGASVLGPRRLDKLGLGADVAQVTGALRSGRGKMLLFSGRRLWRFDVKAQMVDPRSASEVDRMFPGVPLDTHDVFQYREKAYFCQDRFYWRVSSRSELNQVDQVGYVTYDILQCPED

In the case of “Dabcyl-GPHPFRGC(Flu)-NH2 ({Dabcyl″}-GPHPFRGC(Flu)-NH2) [FISb4]”, the “Col-3 Specificity Constant” value (collagenase 3 [1]) is reported as 3.27E+04 1/sM and the “reduction of substrate selectivity for stromelysin 1 relative to FlSb1” value (stromelysin 1 [2]) is reported as “approximately 10 fold”.

“type IV collagen: full length protein digested with collagenase 3 and other MMPs” was tested, and the “cleavage of full length protein by collagenase 1” value (collagenase 1) was “processed”, the “cleavage of full length protein by gelatinase A” value (gelatinase A) was “No detectable cleavage” and the “cleavage of full length protein by gelatinase B” value (gelatinase B) was “processed”.

With “Dab-SYPSGIHLC(Flu)LQR-NH2 ({Dabcyl″}-SYPSGIHLC(Flu)LQR-NH2) [FlSb2, fluorescence substrate based on the sulfate transporter]” the “less sensitive for collagenase 3 compared to the consensus substrate” value (collagenase 3 [1]; compared to FlSb1) was 100 fold and the “selectivity compared to FlSb1” value (collagenase 3 [1]; kcat/Km against the five MMPs) was “less selective”.

“Dabcyl-GPLGMRGC(Fluorescein)-NH2 ({Dabcyl′}-GPLGMRGC(fluorescein)-NH2) [FISb1]” was tested, and the “Strom1 Selectivity v Col-3” value (stromelysin 1 [2]) was 707.5 unitless and the “Strom1 Selectivity v Col-3” value (stromelysin 1 [2]; listed as Fluorescence Substrate 1) was 3665 unitless.

In the case of “Dabcyl-GPVNLHGC(Flu)-NH2 ({Dabcyl″}-GPVNLHGC(Flu)-NH2) [FISb3]”, the “Col-3 Specificity Constant” value (collagenase 3 [1]) is reported as 4.21E+05 1/sM, the “reduction of substrate selectivity for stromelysin 1 relative to FlSb1” value (stromelysin 1 [2]) is reported as “approximately 10 fold” and the “Col-3 Specificity Constant” value (collagenase 3 [3]) is reported as 1.11E+06 1/sM.

B1: biglycan: proteoglycan, full length protein digested with collagenase 3 and other MMPs (protein, UniProt P21810 38-368, looked up)
Biglycan: DEEASGADTSGVLDPDSVTPTYSAMCPFGCHCHLRVVQCSDLGLKSVPKEISPDTTLLDLQNNDISELRKDDFKGLQHLYALVLVNNKISKIHEKAFSPLRKLQKLYISKNHLVEIPPNLPSSLVELRIHDNRIRKVPKGVFSGLRNMNCIEMGGNPLENSGFEPGAFDGLKLNYLRISEAKLTGIPKDLPETLNELHLDHNKIQAIELEDLLRYSKLYRLGLGHNQIRMIENGSLSFLPTLRELHLDNNKLARVPSGLPDLKLLQVVYLHSNNITKVGVNDFCPMGFGVKRAYYNGISLFNNPVPYWEVQPATFRCVTDRLAIQFGNYKK
B1 was tested, and the “cleavage of full length protein by gelatinase B” value (gelatinase B) was “able to degrade” and the “cleavage of full length protein by stromelysin 1” value (stromelysin 1 [4]) was “able to degrade”.
